In patent US20140112930A1 (published 2014):
Values belong to the binder of their own block, whether it stands above or below them.

Experiments:
Biotin-hBA2 [1] = biological target: T1, Biotin-hBA2 (human, biotinylated (sites not given)); assay: blocking ELISA, biotin-hBA2 to hTie-2-His, mean of two experiments
T1 construct: hBA2 consists of two dimers; also called biotinylated hBA2; human bow-Ang2
Protocol: (§1) The plate was then blocked with PBS (Irvine Scientific, Santa Ana, Calif.) containing 0.5% BSA (Sigma-Aldrich Corp., St. Louis, Mo.) for one hour at room temperature. […] Human, mouse or monkey Ang-2FD protein conjugated to human IgG (Ang-2FD-hFc) were added to final concentrations of 2 nM, 8 nM, or 2 nM respectively and incubated for one hour at room temperature. The antibody/Ang-2FD-Fc mixture was then added to the plate containing hTie-2-mFc and incubated for one hour at room temperature. Detection of Ang-2FD-hFc bound to hTie-2-mFc protein was determined with Horse-Radish Peroxidase (HRP) conjugated to a-human IgG antibody (Jackson Immuno Research Lab, West Grove, Pa.) and developed by standard colorimetric response using tetramethylbenzidine (TMB) substrate (BD Biosciences, San Jose, Calif.). Absorbance was read at OD₄₅₀ for 0.1 sec.
For this experiment, human Tie-2 conjugated to a histidine tag (hTie-2-His; SEQ ID NO:526) was used in a similar fashion to the hTie-2-mFc described above. Antibody concentrations from 5 nM were serially diluted three-fold. […] An average IC₅₀ value for each antibody was calculated based on two separate experiments.

Monomeric hAng-2FD = biological target: T2, Monomeric hAng-2FD (human, UniProt O15123 282-496); assay: SPR, captured Ab
T2 construct: also called fibrinogen-like domain of human Ang2; Human Ang-2FD
T2 sequence: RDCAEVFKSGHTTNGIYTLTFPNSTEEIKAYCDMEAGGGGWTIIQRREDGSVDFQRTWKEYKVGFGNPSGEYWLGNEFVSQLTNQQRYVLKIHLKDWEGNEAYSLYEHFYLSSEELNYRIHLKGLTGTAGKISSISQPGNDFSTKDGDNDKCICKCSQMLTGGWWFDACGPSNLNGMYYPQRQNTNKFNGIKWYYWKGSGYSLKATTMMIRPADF

[2] = biological target: T3, wild-type human Ang-2 (hAng-2-WT) (human, UniProt O15123 19-496); assay: SPR, captured Ab
T3 construct: called full-length wild-type; also called Full-length wild-type human Ang-2
T3 sequence: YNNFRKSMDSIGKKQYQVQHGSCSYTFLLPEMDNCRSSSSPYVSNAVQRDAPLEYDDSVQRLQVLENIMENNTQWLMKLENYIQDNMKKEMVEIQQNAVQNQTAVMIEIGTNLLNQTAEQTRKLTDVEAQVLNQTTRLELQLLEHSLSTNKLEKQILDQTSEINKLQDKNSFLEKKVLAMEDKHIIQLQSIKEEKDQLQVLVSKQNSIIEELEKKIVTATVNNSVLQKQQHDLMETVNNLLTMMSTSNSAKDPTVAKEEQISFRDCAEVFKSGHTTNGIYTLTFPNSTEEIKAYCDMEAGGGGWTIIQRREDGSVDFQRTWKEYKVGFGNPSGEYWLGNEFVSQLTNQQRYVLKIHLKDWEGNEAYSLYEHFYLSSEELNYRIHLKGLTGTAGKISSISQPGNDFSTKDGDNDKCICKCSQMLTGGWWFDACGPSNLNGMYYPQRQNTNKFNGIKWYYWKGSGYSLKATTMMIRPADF

[3] = biological target: T4, Dimeric Human Ang-2FD conjugated to human IgG1 (human); assay: SPR, captured Ab, RT
T4 construct: also called Human Ang-2FD-hFc; hAng-2FD-hFc
Summary of the method: (§2)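 Antibody captured on amine-coupled goat anti-mouse IgG, anti-human κ or anti-human IgG polyclonal surfaces on a CM5 chip; antigen binding and dissociation followed in real time at room temperature. KD and complex dissociation half-life derived by kinetic analysis.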

[4] = biological target: T5, Dimeric Monkey Ang-2FD conjugated to human IgG1 (monkey (Macca fascicularis); human); assay: SPR, captured Ab, RT
T5 construct: also called Monkey Ang-2FD-hFc
Summary of the method: as §2

[5] = biological target: T6, Dimeric Mouse Ang-2FD conjugated to human IgG1 (mouse (Mus musculus); human); assay: SPR, captured Ab, RT
T6 construct: also called Mouse Ang-2FD-hFc
Summary of the method: as §2

[6] = biological target: T4, Dimeric Human Ang-2FD conjugated to …; assay: competition ELISA, 16.67 nM Ab, coated hTie-2-mFc
Protocol: as §1

[7] = biological target: T5, Dimeric Monkey Ang-2FD conjugated to …; assay: competition ELISA, 16.67 nM Ab, coated hTie-2-mFc
Protocol: as §1

[8] = biological target: T6, Dimeric Mouse Ang-2FD conjugated to …; assay: competition ELISA, 16.67 nM Ab, coated hTie-2-mFc
Protocol: as §1

Biotin-hBA2 [9] = biological target: T1, Biotin-hBA2; assay: blocking ELISA, biotin-hBA2 to hTie-2
Mouse Ang-2FD-hFc = biological target: T7, Mouse Ang-2FD-hFc (mouse (Mus musculus)); assay: blocking ELISA, 16.67 nM antibody, Ang-2FD-hFc to coated hTie-2-mFc
T7 construct: also called dimeric mouse Ang-2FD
Protocol: as §1

Human Ang-2FD-hFc = biological target: T8, Human Ang-2FD-hFc (human); assay: as above
T8 construct: also called dimeric human Ang-2FD; human Ang-2FD protein conjugated to human IgG
Protocol: as §1

B2: H1M728N (antibody, V domains shown)
VH: EVQLVESGGDLVQPGGSLRLSCTASGFTFSKYWMTWVRQAPGRGLEWVANIKEDGNEKYFLDSVKGRFTISRDNAKDLLFLQMNSLRGEDTAVYYCVRDRGIEVAGPFDYWGQGTLVTVSS
VL: DIQMTQSPSTLSASVGDRVTVTCRASQTIINWLAWYQQKPGKAPKLLISKASSLESGVPSRFSGSGSGTEFTLTISSLQPDDFATYYCQQYNRYWTFGQGTMVEIK
IC50 (Biotin-hBA2 [1]): 0.014 nM

B5: H1H695P (antibody, human IgG1, V domains shown)
VH: QVQLVESGGGVVQPGRSLRLSCAASGFTFSSYGMHWVRQAPGKGLEWVAVMWYDETNKYYADSVKGRFTISRDNSKNTLYLQMNSLRAEDTAVYYCARYSGYEDYYHGMDVWGQGTTVTVS
VL: EIVMTQSPATPSVSPGERATLSCRASQSISSNLAWYQQKPGQAPRLLIYGASTRATGIPARFSGSGSGTEFTLTISSLQSEDFAVYYCQHYNNWITFGQGTRLEIK
notes: Human IgG1
IC50 (Biotin-hBA2 [9]): 0.059 nM
Percent Blocking of Ang-2FD Binding to Tie-2 (Mouse Ang-2FD-hFc): 97.6%
Percent Blocking of Ang-2FD Binding to Tie-2 (Human Ang-2FD-hFc): 98.4%

B9: H1M724N (antibody, V domains shown)
VH: QVQLVESGGGVVQPGRSLRLSCAASGFTLSNYGMHWVRQAPGKGLEWVAVIWHDGSNTYYADSVKGRFTISRDNSKNTLYLQMNSLRAEDTAVYYCTREGLDFWSGYYPNWFDPWGQGTLVTVSS
VL: DIQMTQSPSSLSASVGDRVTITCRASQGIRNDLGWYQQKPGKAPKRLIYAASNLQGGVPSRFSGSGSGTEFTLTISSLQPEDFAAYYCLQHNIYPLTFGGGTKVEIK
IC50 (Biotin-hBA2 [1]): 0.00972 nM

B10: H1M732N (antibody, V domains shown)
VH: EVQLVESGGGLVRPGGSLRLSCAASGFTFTNAWMSWVRQAPGKGLEWIGQIKSKTDGGTIDYAAPVKGRFTVSRDDSENTLFLQMNSLKTEDTAVYYCAGNWNYVDFDYWGQGTLVTVSS
VL: DIQMTQSPSSLSASVGDRVTITCRASQDIRNDLGWYQQKPGKAPKRLIYAASSLQGGVPSRFSGSGSGTEFTLTISSLQPEDFATYYCLQHNSYPFTFGPGTKVDIK
IC50 (Biotin-hBA2 [1]): 0.0822 nM

B11: H1H707P (antibody, human IgG1, V domains shown)
VH: QVQLVESGGGVVQPGRSLRLSCAASGFTFSSYGMHWVRQAPDKGLEWVAVKWDDGSNKYYADSVKGRFTISRDNSKNTLYLQMNSLRAEDTAVYYCAREGPYDFYSGYGAFDIWGQGTMVTVSS
VL: not shown
notes: Human IgG1
Percent Blocking of Ang-2FD Binding to Tie-2 (Mouse Ang-2FD-hFc): 93.8%
Percent Blocking of Ang-2FD Binding to Tie-2 (Human Ang-2FD-hFc): 95.1%

B13: H1H704P (antibody, V domains shown)
VH: QVQLVESGGDVVQPGRSLRLSCAASGFTFSSYGMHWVRQAPGKGLEWVAIIWYDGSNKYYADSVKGRFTISRDNSKNTLYLQMNSLRVEDTAVYSCARDFSISSRHFDYWGQGTLVTVSS
VL: DIQMTQSPSSLSASVGDRVTITCRASQAINNYLAWFQQKPGKAPKSLIYATSNLQSGVPSQFSGSGSGTDYTLTISSLQPEDFATYYCQQYYIYPITFGQGTRLEIK
notes: Human IgG1
IC50 (Biotin-hBA2 [9]): 0.056 nM
Percent Blocking of Ang-2FD Binding to Tie-2 (Mouse Ang-2FD-hFc): 41.8%
Percent Blocking of Ang-2FD Binding to Tie-2 (Human Ang-2FD-hFc): 97%

Next, values leading:

IC50 (Biotin-hBA2 [1]): 0.00883 nM
B1: H2M750N (antibody, V domains shown)
VH: QVKLVESGGGVVQPGRSLRVSCAASGFTFSSYGMHWVRQAPGKGLEWLAIIWYDGDNKYYSDSVKGRFTISRDNSKNTLYLQMNSLRAEDTAEYYCVRDASIASRFLDYWGQGTLVTVSS
VL: DIQMTQSPSSLSASIGDRVTITCRATQDINNYLAWFQQKPGKAPKSLIYATSNLQSGVPSKFSGSGSGTDYTLTISSLQPEDFSTYYCQQYHSYPLTFGGGTKVEIK
notes: also called H1M750N; H1M750

IC50 (Biotin-hBA2 [1]): 0.0146 nM
B3: H2M730N (antibody, V domains shown)
VH: EVQLVESGGGLVQPGGSLRLSCAASGFAFRSYWMTWVRQAPGKGLEWVANIQQDGNDKYYVDSVKGRFTISRDNAKNSLYLQMNSLRAEDTAVYYCARDTGIAEAGPFDYWGQGTLVTVSS
VL: DIQMTQSPSTLSASVGDRVSITCRASQTIISWLAWYQQKPGKAPRLLIYKASSLESGVPSRFSGSGSGTEFTLTINSLQPDDFATYYCQQYNRYWTFGQGTKVEIK

Kd (Monomeric hAng-2FD): 1.38 nM
T1/2 (Monomeric hAng-2FD): 27.9 min
Kd [2]: 0.049 nM
T1/2 [2]: 479 min
Kd [3]: 0.165 nM
T1/2 [3]: 42.9 min
Kd [4]: 1.5 nM
T1/2 [4]: 40.9 min
Kd [5]: 0.529 nM
T1/2 [5]: 25.5 min
Percent Blocking of Ang-2FD Binding to Tie-2 [6]: 99.5%
Percent Blocking of Ang-2FD Binding to Tie-2 [7]: 97.4%
Percent Blocking of Ang-2FD Binding to Tie-2 [8]: 97.3%
B4: H2M749N (antibody, V domains shown)
VH: QVQLVESGGGVVQPGRSLRLSCAASGFTFSSYGMHWVRQAPGKGLEWVAVIWYDEFNKYYADSVKGRFTISRDNSKNTLYLQMNSLRAEDTAVYYCARERESGYSYGFDYWGQGTLVTVSS
VL: EIVMTQSPATLSVSPGERATLSCRAGQSVSSNLAWYQQKPGQAPRLLIYGASTRATGIPARFSGSGSGTEFTLTISSLQSEDFAVYYCQQYNNWWTFGQGTKVEIK
notes: also called H1M749N; H1M749

IC50 (Biotin-hBA2 [1]): 0.00643 nM
B6: H1M749N (antibody, V domains shown)
VH: QVQLVESGGGVVQPGRSLRLSCAASGFTFSSYGMHWVRQAPGKGLEWVAVIWYDEFNKYYADSVKGRFTISRDNSKNTLYLQMNSLRAEDTAVYYCARERESGYSYGFDYWGQGTLVTVSS
VL: EIVMTQSPATLSVSPGERATLSCRAGQSVSSNLAWYQQKPGQAPRLLIYGASTRATGIPARFSGSGSGTEFTLTISSLQSEDFAVYYCQQYNNWWTFGQGTKVEIK
notes: also called H2M749N

IC50 (Biotin-hBA2 [1]): 0.0114 nM
B7: H2M744N (antibody, V domains shown)
VH: QVQLVQSGVEVKKPGASVKVSCKTSGYTFSNNGFSWVRQAPGQGLEWLGWISGYNGNTNYAQKFQGRVTMTTDTSTSTAYMELRTLRSDDTAVYYCARDQDYSNFHWLDPWGQGTLVTVAS
VL: DIQMTQSPSSVSASVGDRVIITCRASQGLSSWLAWYQQKPGTAPKLLIHSASSLQTGVPSRFSGSGSGTEFALTINSLQPEDFGTYYCQQANSFPLTFGGGTRVEIK
notes: also called H1M744N; H1M744

IC50 (Biotin-hBA2 [1]): 0.00965 nM
B8: H2M742N (antibody, V domains shown)
VH: DVQLLESGGDLVQPGGSLRLSCEASGFTFRNYVMIWVRQAPGKGLEWVSGISNSGGTTHYTDSVKGRFTISRDNSKNTLYLQINSLRAEDTAVYYCAKGYLDTSLIEGNWFDPWGQGTLVTVSS
VL: NIVMTQSPLSLPVTPGEPASISCRSSQSLLHSNGFNYLNWFLQKPGQSPQLLIYLGSNRASGVPDKFSGSGSGTDFTLNINRVEAEDVGIYFCMQTLQTPLTFGGGTKVEIK
notes: also called H1M742N

IC50 (Biotin-hBA2 [1]): 0.011 nM
B12: H2M743N (antibody, V domains shown)
VH: EVQLLESGGGLVQPGGSLRLSCAASGFTFRKYAMSWVRQAPGKGLEWVSVISVSGGNTYYADSVKGRFTISRDNSKNTLYLQLNSLRAEDTAVYYCAKDLTDIVLMVYVDYWGQGTLVTVSS
VL: DIQMTQSPSSVSASVGDRVTITCRASQDIDRWLAWYQQKPGKAPKLLIYAASSLQSGVPSRFSGSGSGTDFTLTISTLQPEDFATYYCQQANSLPFTFGGGTKVEIK
notes: also called H1M743N
